The nature of the data set: soluble on expression in E. coli; label from the status in PepcDB or PDB records.
As to “MSLKRAEPQSLQVSQNELQAMAYSDPLTGLGNRYRLRDKIRMLASERSSDPAPFTVGIANIDGFKPINDLFGVQAGDEILCQVAHRLKACIPDGAIVTRHDGDEFAFVLPLIFERIGAERIGNMIKDVLSAPYDLGDRNVRLSSSFGFAIYPFAGDEYEDLLKSAETALYRSKRRGRGQITVYSREIAQEMKRATQLEQALRNAIITDAIDVHFQPIVRLEEAKVIGFEALARWNDPDLGFVSPAVFVPLAEERGFIDALSEALLRKAAEAALFWPRELFLSFNLSSAQLMDPSTSDNILSILSRVGLDPHRLELEITETAVMTSADTAQRIISELQSAGVRISLDDFGTGQSSLGRLRDFTFDKVKIDRAFVSRISSDRPSEHIIKAIVAMCEGLDLEVVAEGIEERVEEEKLRALGCAMGQGYFYGRPVDAAATQRYLHENYREILSDISEGHHHHHH”, the “soluble on expression in E. coli” value is reported as “soluble”.

Consider “GSHMLEMSGPRAGFYRQELNKTVWEVPQRLQGLRPVGSGAYGSVCSAYDARLRQKVAVKKLSRPFQSLIHARRTYRELRLLKHLKHENVIGLLDVFTPATSIEDFSEVYLVTTLMGADLNNIVKCQALSDEHVQFLVYQLLRGLKYIHSAGIIHRDLKPSNVAVNEDSELRILDFGLARQADEEMTGYVATRWYRAPEIMLNWMHYNQTVDIWSVGCIMAELLQGKALFPGSDYIDQLKRIMEVVGTPSPEVLAKISSEHARTYIQSLPPMPQKDLSSIFRGANPLAIDLLGRMLVLDSDQRVSAAEALAHAYFSQYHDPEDEPEAEPYDESVEAKERTLEEWKELTYQEVLSFKPPEPPKPPGSLEIEQ”, for which the “soluble on expression in E. coli” value is recorded as “soluble”.

Regarding DAQTRRRERRAEKQAQWKAANPLLVGVSAKPVNRP, the “soluble on expression in E. coli” value is recorded as “soluble”.

Take “MSLKKATLKDIAEYFGVSISTVSRALSGKPGVSSELREKILEKAREIGYTPNLMALGLKKGNTRTVGVLIPELSANFFADIVSSIEKSLFHLGYRLILCSTDDDPVKEREHLQLLLDQKVEGILSAPVNVKENKDIYNSIINHFKIPVVFFDRLVEGVDSDFVISDNREGMEILVNYLVKHGHKKIGLIHPLRGSFTGEERLKGFLLFKDSIEIREEWIRDGRSSEQGGYESFLRIMTSQERPTAIVIGNNLMTLGVLKAAKELNIKIPEDISLVSFDDAYWNEIFDPPITCVRQDPQQIGLIAATILLDRMKNRKKPSPRMQVVLKVKFVERSSVRTIKTLKDEGHHHHHH”: the “soluble on expression in E. coli” value was “soluble”.

Take “GMKGENMMVKLIALYEQPEDKQAFDEHYFNTHAPLTRKIPGLRDMKVTRIVGSPMGESKFYLMCEMYYDDHESLQQAMRTDEGKASGKDAMKFAGKLLTLMIGEEMDE”: the “soluble on expression in E. coli” value was “soluble”.

As for “MSDNNDRMYELEYPSPEVSGQTAGGPTLIVALQGYADAGHAVESSSSHLMDALDHRLIASFNNDELIDYRSRRPVVVIEHNEVTSMDELNLGLHVVRDNDNKPFLMLSGPEPDLRWGDFSNAVVDLVEKFGVENTICLYAAPMTVPHTRPTVVTAHGNSTDRLKDQVSLDTRMTVPGSASLMLEKLLKDKGKNVSGYTVHVPHYVSASPYPAATLKLLQSIADSADLNLPLLALERDAEKVHRQLMEQTEESSEIQRVVGALEQQYDSELERYRNRHPQAVMPGESELPSGDEIGAEFEKFLADLDDQGGSDHKETPEA”, the “soluble on expression in E. coli” value is given as “soluble”.

For the sequence “MSYYHHHHHHLESTSLYKKAGFMADQLTPHLEIPTAIKPRDGRFGSGPSKVRLEQLQTLTTTAAALFGTSHRQAPVKNLVGRVRSGLAELFSLPDGYEVILGNGGATAFWDAAAFGLIDKRSLHLTYGEFSAKFASAVSKNPFVGEPIIITSDPGSAPEPQTDPSVDVIAWAHNETSTGVAVAVRRPEGSDDALVVIDATSGAGGLPVDIAETDAYYFAPQKNFASDGGLWLAIMSPAALSRIEAIAATGRWVPDFLSLPIAVENSLKNQTYNTPAIATLALLAEQIDWLVGNGGLDWAVKRTADSSQRLYSWAQERPYTTPFVTDPGLRSQVVGTIDFVDDVDAGTVAKILRANGIVDTEPYRKLGRNQLRVAMFPAVEPDDVSALTECVDWVVERL”, the “soluble on expression in E. coli” value was “soluble”.

In the case of “MGFCNMLLLSNILLTAWLSTAKGEEILCTPPRVENGDGLNVKPVYKENERYHYKCKHGYVPKERGDAICTGSGWSSQPFCEEKTCSPPYILNGIYTPHRIIHRSDDEIRYECNYGFYPVTGSTVSKCTPTGWIPVPRCTLKPCEFPQFKYGRLYYEESLRPNFPVSIGNKYSYRCDNGFSPPSGYSWDYLRCTAQGWEPEVPCVRKCVFHYVENGDSAYWEKIYVQGQSLKVQCYNGYSLQNGQDIMTCTENGWSPPPKCIRIKTCSASDIHIDNGFLSESSYIYALNRETSYRCKQGYVTNTGEISGSITCLQNGWSPQPSCIKSCDMPVFENSITKNTRTWFKLNDKLDYECLVGFENEYKHTKGSITCTYYGWSDTPSCYDSTRTCGPPPPIDNGDITSLSLPEYEPLSSVDYQCQKYYLLKGNKTITCRNGKWSEPPTCLHACVIPENIMEAHNIILKWRHTEKIYAHSGEDIEFECKRGYQKARGSLPFRTKCINGTINYPTCV”, the “soluble on expression in E. coli” value is listed as “soluble”.

For the sequence “MAHHHHHHMVNTLLNYSESIQLGDELSNLLEFTREMNAYLRGTQVAESDVLREAHNSFAPTEFFVLHDETPDASDVYHFVSFVYKNGAVWELDGLQKGPILAADATDGNYKEKLVEVVQKRVIDKSAADNTGTGQGISFSLMAVVDDRLLQLEKEIEEAKAREEPTAYLAEQLEELRLQREKGRAENQRRRHNYVPMIVELLKALAEKGKLEGIVEEALAKKAASASSDRS”, the “soluble on expression in E. coli” value is “soluble”.

In the case of “MGSSHHHHHHSSGLVPRGSHMTDKLTSLRQYTTVVADTGDIAAMKLYQPQDATTNPSLILNAAQIPEYRKLIDDAVAWAKQQSNDRAQQIVDATDKLAVNIGLEILKLVPGRISTEVDARLSYDTEASIAKAKRLIKLYNDAGISNDRILIKLASTWQGIRAAEQLEKEGINCNLTLLFSFAQARACAEAGVFLISPYVGEILDWYKANTDKKEYAPAEDPGVVSVSEIYQYYKEHGYETVVMGASFRNIGEILELAGCDRLTIAPTLLKELAESEGAIERKLSYTGEVKARPARITESEFLWQHNQDPMAVDKLAEGIRKFAIDQEKLEKMIGDLL”, the “soluble on expression in E. coli” value is “soluble”.

Turning to “MMHGGFAMIIDQYWGKYFGDSADSQRLAQYLAGKNREVLTTSEIFQDFQLAQLSGNYTQASLDGAGWHFDSAFQFVIDLAVLVLESKKVGRFSIARIGGPEDRFMRIDAATDELLPITMALKHYALAPEDYLFSHGIDVDDWYELGNLCEEIRAQLEA”, the “soluble on expression in E. coli” value was “not soluble”.

For “NGFDREMRTRILGMVPQATVESYQPIDDWRALAEKVKAHEHVTAVAPFTQMQGMLSANGAVQTVMVDAVDPLEEAKVSIIPDFFKQGSLAELKAGGFGIVIGQLAAQKLGVGIGDKVTLILPEVAVTPAGVFPRMKRFTVVGTFRVGAGELDGGLSLIHLEDAARLQRWKTNQVQGLRLKLDDLFQAPRVAWEIARTLTDNDFYARDWTRSHGNLYQAIRMEKT”, the “soluble on expression in E. coli” value is recorded as “not soluble”.

On to “MIDKIVFEEDEEYDLTQDSFRYGRVTTGASYNLVTGKIPETVLEQVKAKDDENDDVEFEMDHLEDKEAVQKTKTFDELYESQMPKYFEYQSNFSEVNGIWTLLFDQNHYENMSTFELQAAICAALNSKHYMMICVGIDAFNAVTGVEMSAKDRVVFRMALTRAVAGEFQPPLVKVAPKQLTGVSPMKRDISEVTSSIDVLFIPVIGVTDEVENNRFLIVVRVKEISDKVYQISSGRIYNELEGRVVEMSDMNEAFHKLIVEQSISDIQTRRGSMFMLEPEPFLEDSPVIFTGSKEILRENHEIPNILKENSTERSLSQSLLNLLDIQNIGWIFFGTALSCCIYNNAIKPLVK”, for which the “soluble on expression in E. coli” value is “not soluble”.

In the case of “GAMEAEKEFITMLKENQVDSTWSFSRIISELGTRDPRYWMVDDDPLWKKEMFEKYLSNR”, the “soluble on expression in E. coli” value is “soluble”.

As to “MNTGHHKVADTLIDFLHRQFPWVESKKIDFLSYCNELMEKMVSGAYLRWIRSHPASYHRVYKTFMYEESLRLEFVSFEPWLPYFEGKMKKMLEQERPDLIVCTHSFPSRILQQLKRKKVLAIPVVNVYTDFFMNSIWGKRFIDYHFVPHQEAKRELIVKHGIDERRIVVTGIPVHDTFMKAAALEHHHHHH”, the “soluble on expression in E. coli” value is recorded as “not soluble”.

For “MSLEQPGFKLRAVTIHFEASADVDSIEDAVFKAKEAIDRLTAEKGVEVWSLRAVLTPGESVADSLGRVAELEPLVEEEGVFINLGLHNASADDWEAVSGIVESGFFLSFALENGTWEEARSYSKLLHRLADKSPDLAVHIGFNPLGTHILTPYFPLATSPGEQRTVTVALLYPRYLLESFRKGGLQAVIDSMVDAAQLSGEYGKAVAKDVEGSFAGVDLSISPWMEESSLALVEEVGGVRLPEPGFAYGLRLVNEAIAAAASKTGYAVGFNEVQLPVAEDSKLKVRVAELETSARDLLRLSGVCLAGLDMAVIPASLDGVAGLLLEARAYSRAKGSIVGVRLIPLDGVEPGDEVFLKRFGEVPVIPIEGHHHHHH”, the “soluble on expression in E. coli” value is “not soluble”.

For “MDADMDYERPNVETIKCVVVGDNAVGKTRLICARACNTTLTQYQLLATHVPTVWAIDQYRVCQEVLERSRDVVDEVSVSLRLWDTFGDHHKDRRFAYGRSDVVVLCFSIANPNSLNHVKSMWYPEIKHFCPRTPVILVGCQLDLRYADLEAVNRARRPLARPIKRGDILPPEKGREVAKELGLPYYETSVFDQFGIKDVFDNAIRAALISRRHLQFWKSHLKKVQKPLLQAPFLPPKAPPPVIKIPECPSMGTNEAACLLDNPLCADVLFILQDQEHIFAHRIYLATSSSKFYDLFLMECEESPNGSEGACEKEKQSRDFQGRILSVDPEEEREEGPPRIPQADQWKSSNKSLVEALGLEAEGAVPETQTLTGWSKGFIGMHREMQVNPISKRMGPMTVVRMDASVQPGPFRTLLQFLYTGQLDEKEKDLVGLAQIAEVLEMFDLRMMVENIMNKEAFMNQEITKAFHVRKANRIKECLSKGTFSDVTFKLDDGAISAHKPLLICSCEWMAAMFGGSFVESANSEVYLPNINKISMQAVLDYLYTKQLSPNLDLDPLELIALANRFCLPHLVALAEQHAVQELTKAATSGVGIDGEVLSYLELAQFHNAHQLAAWCLHHICTNYNSVCSKFRKEIKSKSADNQEYFERHRWPPVWYLKEEDHYQRVKREREKEDIALNKHRSRRKWCFWNSSPAVA”, the “soluble on expression in E. coli” value is “soluble”.

Turning to “MAAKQGESDPERKETRQKVDDDRKHEIEAAIVRIMKSRKKMQHNVLVAEVTQQLKARFLPSPVVIKKRIEGLIEREYLARTPEDRKVYTYVA”, the “soluble on expression in E. coli” value is “soluble”.

The record behind these values is the DeepSol protein solubility set.
